Source: article PMC8745424

Experiments:
[1] = target: SARS-CoV-2 S-protein RBD (expressed in CHO cells) (SARS-CoV-2 (Wuhan-type)) (UniProt P0DTC2); assay: BLI; conditions: BLI (BLItz, streptavidin sensors, […]; RBD 50-200 nM): PBS, 0.55 mM MgCl2, 0.1 mg/mL BSA, 0.002% Tween-20, room temperature; binding-buffer pH not stated
[2] = target: SARS-CoV-2 S-protein RBD (expressed in P. pastoris) (SARS-CoV-2 (Wuhan-type)) (UniProt P0DTC2); assay: BLI; conditions: BLI (BLItz, streptavidin sensors, immobilized aptamer 200 nM; RBD 50-200 nM): PBS, 0.55 mM MgCl2, 0.1 mg/mL BSA, 0.002% Tween-20, room temperature …

Row | Sequence | Kd [1] [nM] | Kd [2] [nM]
1 | ATCCAGAGTGACGCAGCATCGAGTGGTGGGCTGGTCGGGTTTGGATTCCCTTAGATGCTGGACACGGTGGCTTAGTTTTTTTTTTT [CoV2-RBD-2-Biotin] | 4.3 | 10
2 | ATCCAGAGTGACGCAGCATTTCATCGGGTCCAAAAGGGGCTGCTCGGGATTGCGGATATGGACACGTTTTTTTTTTT [CoV2-RBD-4-Biotin] | 21 | 5.5
3 | CAGCACCGACCTTGTGCTTTGGGAGTGCTGGTCCAAGGGCGTTAATGGACATTTTTTTTTT [CoV2-RBD-1C-Biotin] | 27 | 1.5
4 | ATCCAGAGTGACGCAGCAGTAGGGGGATTGGCTCCAGGGCCTGGCTGACGGTTGCACGTGGACACGGTGGCTTAGTTTTTTTTTTT [CoV2-RBD-6-Biotin] | 10 | 1
5 | TTTTTTTTTTATCCAGAGTGACGCAGCATTTCATCGGGTCCAAAAGGGGCTGCTCGGGATTGCGGATATGGACACGT [Biotin-CoV2-RBD-4] | 18 | 14
6 | ATCCAGAGTGACGCAGCAGGACTGCTTAGGATTGCGAAGCTGAGGAGCTCCCCCGCCTTGGACACGGTGGCTTAGTTTTTTTTTTT [CoV2-RBD-5-Biotin] | 26 | 1.2
7 | TTTTTTTTTTCAGCACCGACCTTGTGCTTTGGGAGTGCTGGTCCAAGGGCGTTAATGGACA [Biotin-CoV2-RBD-1C] | 5.8 | 0.8
8 | TTTTTTTTTTATCCAGAGTGACGCAGCAGTAGGGGGATTGGCTCCAGGGCCTGGCTGACGGTTGCACGTGGACACGGTGGCTTAGT [Biotin-CoV2-RBD-6] | 29 | 3.5
9 | ATCCAGAGTGACGCAGCACTGCGTAGGCGCGGCCAATGTGTAGGATTGCTCAGGTCTGCTGGACACGGTGGCTTAGTTTTTTTTTTT [CoV2-RBD-3-Biotin] | 24 | 2
10 | TTTTTTTTTTATCCAGAGTGACGCAGCACTGCGTAGGCGCGGCCAATGTGTAGGATTGCTCAGGTCTGCTGGACACGGTGGCTTAGT [Biotin-CoV2-RBD-3] | 40 | 1.4
11 | TTTTTTTTTTATCCAGAGTGACGCAGCAGGACTGCTTAGGATTGCGAAGCTGAGGAGCTCCCCCGCCTTGGACACGGTGGCTTAGT [Biotin-CoV2-RBD-5] | 22 | –
12 | TTTTTTTTTTATCCAGAGTGACGCAGCATCGAGTGGTGGGCTGGTCGGGTTTGGATTCCCTTAGATGCTGGACACGGTGGCTTAGT [Biotin-CoV2-RBD-2] | 17 | –
